The results in this text go back to publication PMC7615185, “Structural basis for ion selectivity in potassium-selective channelrhodopsins” (Cell, 2023).

In one experiment the target is T1, HcKCR2 (Hyphochytrium catenoides, UniProt Z9CM73ZIR3).
T1 construct: M1-D265; MSP1E3D1/SoyPC nanodisc; residues 2-260 modelled (initiator Met lost); homotrimer
T1 sequence (Z9CM73ZIR3 1-265): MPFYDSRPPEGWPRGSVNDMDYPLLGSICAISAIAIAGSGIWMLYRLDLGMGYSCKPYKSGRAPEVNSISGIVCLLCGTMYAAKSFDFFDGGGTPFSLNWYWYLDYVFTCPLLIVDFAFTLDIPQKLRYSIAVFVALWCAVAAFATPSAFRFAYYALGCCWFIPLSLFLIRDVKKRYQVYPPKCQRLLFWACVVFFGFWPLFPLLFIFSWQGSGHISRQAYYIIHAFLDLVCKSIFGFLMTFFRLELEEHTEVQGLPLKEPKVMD
Nature of the experiment: cryo-EM structure. Type of experiment: binding. To be noted: dark state, nanodisc, pH 7.5; covalent Schiff base to K233; 6-s-cis conformer.

Experiment [1] has as its target HcKCR2 WT (K+-selective channelrhodopsin 2 from Hyphochytrium catenoides) (Hyphochytrium catenoides). In words: cryo-EM structure; dark state; protein in MSP1E3D1/SoyPC nanodiscs, 20 mM HEPES-NaOH pH 7.5, 100 mM NaCl; C3 symmetry.
Experiment [2] concerns the target HcKCR1 WT (K+-selective channelrhodopsin 1 from Hyphochytrium catenoides) (Hyphochytrium catenoides). The experiment is described as above.

`CC1=C(/C=C/C(C)=C/C=C/C(C)=C/C=O)C(C)(C)CCC1` [all-trans-retinal]: on HcKCR2, the cryo-EM structure result is “HcKCR2 thus represents the initial naturally occurring microbial rhodopsin with experimentally demonstrated 6-s-cis-retinal configuration”. As usually defined, the stoichiometry N is a count of units in the complex or per binding partner. In the case of “HcKCR2 WT (K+-selective channelrhodopsin 2 from Hyphochytrium catenoides) (domain or fragment)”, the stoichiometry N in experiment [1] is 3. The molecule “HcKCR1 WT (K+-selective channelrhodopsin 1 from Hyphochytrium catenoides) (domain or fragment)” showed a stoichiometry N in experiment [2] of 3.
